The values below are quoted from earlier work in US9817004B2, “Development and use of cysteine-labeled fluorescent probes of unbound analytes” (priority 2008, dated 2017).

For this series the following is noted: I-FABP mutants labeled with acrylodan; from U.S. Pat. No. 5,470,714; cited from earlier work.

B1: Thr81Cys: I-FABP mutant Thr81Cys labeled with acrylodan (Kleinfeld '714) (protein, UniProt P02693 2-132, looked up, variant T81C)
Fatty acid-binding protein, …: AFDGTWKVDRNENYEKFMEKMGINVVKRKLGAHDNLKLTITQEGNKFTVKESSNFRNIDVVFELGVDFAYSLADGTELTGCWTMEGNKLVGKFKRVDNGKELIAVREISGNELIQTYTYEGVEAKRIFKKE
modifications: acrylodan label
For B1, the “fluorescence response to FFAu binding” value is recorded as “unresponsive to FFAu binding”.

B2: Thr83Cys: I-FABP mutant Thr83Cys labeled with acrylodan (Kleinfeld '714) (protein, UniProt P02693 2-132, looked up, variant T83C)
Fatty acid-binding protein, …: AFDGTWKVDRNENYEKFMEKMGINVVKRKLGAHDNLKLTITQEGNKFTVKESSNFRNIDVVFELGVDFAYSLADGTELTGTWCMEGNKLVGKFKRVDNGKELIAVREISGNELIQTYTYEGVEAKRIFKKE
modifications: acrylodan label
For the molecule B2, the “fluorescence response to FFAu binding” value is “unresponsive to FFAu binding”.
